From the nanobody polyreactivity screen of Harvey et al. (2022)

Test: yeast display, Sf9 membrane polyspecificity reagent, FACS + sequencing; frameworks hold sequencing errors
In short: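 Nanobodies from a synthetic yeast display library (Saccharomyces cerevisiae BJ5465), induced 36–48 hours with galactose, were stained 1 hour at 4 °C with 10% biotinylated, detergent-solubilized Sf9 membrane reagent, enriched on streptavidin microbeads, then FACS-sorted. Anti-HA (expression) and streptavidin (reagent binding) fluorescence set low and high (top ~1%) gates. Polyreactivity labels come from the gate of origin. Genes were colony-PCR amplified, MiSeq 2 × 250 sequenced and filtered by CDR length.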
With “QVQLQERGGGLVQAGGSLRLSCAASGYISHADEKGWYRQAPGKEHELVASISNGGCTNYADSEKGRFTISRDNAKNTLYLQMNSLKSEDTAVYYCAAWTGQVDIHYYWGQGTQVTVSS” the “polyreactivity (PSR sort gate)” value was “low polyreactivity”. With “QVQLVESGGGLVQAGGSLRLSCAASGRIFLSYAMGWYRQAPGKERELVAGITWNGGSTYYADSVKGRFTISRDNAKNTVYLQMNSLKPEDTAVYYCAATRFSYVFPYRYDYWGQGTQVTVSS” the “polyreactivity (PSR sort gate)” value was “low polyreactivity”. With “QVQLVESGGGLVQAGGSLRLSCAASGRIFPEYTMGWYRQAPGKERELVAAISKRGSSTNYADSVKGRFTISRDNAKNTVYLQMNSLKPEDTAVYYCAARGYTLSYVDMYYWGQGTQVIVSS” the “polyreactivity (PSR sort gate)” value was “high polyreactivity”. For “QVQLVESGGGLVQAGGSLRLSCAASGRIFYQNAMGWYRQAPGKERELVADISSGGSTYYADSVKGRFTISRDNAKNTVYLQMNSLKPEDTAVYYCNTPSGPGTVGSYRRKWYGYWGQGTQVTVSS”, the “polyreactivity (PSR sort gate)” value was “low polyreactivity”. In the case of “QVQLVESGGGLVQAGGSLRLSSAASGRIFARYAMGWYIQAPGKERELVAAITVSGDNTYYADSVKGRFTISRDNAKNTVYLQMNSRKPEDSADYYCDVRAVLLFGFFEYDYWGHGTQVTVSS”, the “polyreactivity (PSR sort gate)” value is reported as “low polyreactivity”. With “QVQLVESGGGLVQAGGSLRLSCAASGRIFDDNTMGWSRQAPGKERELVAAISSGTSTYYADSVKGRFTISRDNAKNTVYLQMNSLKPEDTAVYYCAAVIKWTKDDYWGQGTQVTVSS” the “polyreactivity (PSR sort gate)” value was “high polyreactivity”. With “QVQLVESGGGLVQAGGSLRLSCAASGSIFGRNAMGWYRQAPGKERELVADIWNGGSTYYADSVKGRFTISRDNAKNTVYLQMNCLKPEDTAVYYCNADANDDGRFGGYIKYDYWGQGTQVTVSS” the “polyreactivity (PSR sort gate)” value was “low polyreactivity”. For “QVQLVESAAGLVQAGGSLRLSCAASGLILDEYAMGWYRQAPGKEMELVAAISWSGGSTYYADSVKGRFTISRDNAKNTVYLQMNSLKPEDTAVYYCAADRVWFSDNSYYYWGQGTQVTVSS”, the “polyreactivity (PSR sort gate)” value was “high polyreactivity”. With “QVQLVESGGGLVQAGGSLRLSSAASGRTFNYYTMGWYRQAPGKERELVAAITNGGSTNYADSVKGRFTISRDNAKNTVYLQMNSLKPEDTAVYYCNADAFAFRTLHYDYWGQGTQVTVSS” the “polyreactivity (PSR sort gate)” value was “low polyreactivity”. For “QVQLVESGGGLVQAGGSLRLSCAASVRLFRGYAMGWYRQAPGKERELVAGITSGGSTKYADSVKGRFTISRDNAKNTVYLQMNSLKPEDTAVYDCAKGYLAYSYYARPYIRYYWGQGTQVTVSS”, the “polyreactivity (PSR sort gate)” value was “high polyreactivity”. For “QVQLVESGGGLVQAGGSLRLSCAASGSIFRYYAMGWYRQAPGKERELVAAISGDSGRTYYADSVKGRFTISRDNAKNTVYFQMNSLKPEDTAVYYCNARVAYRYRTGYDYWGQGTQVTVSS”, the “polyreactivity (PSR sort gate)” value was “high polyreactivity”. For “QVQLVESGGGLVQAGGSLRLSCAASGGTFTPYDMGWYRQAPGKERELVASITGSGGSTYYADSVKGRFTISRGNAKNTVYLQMNSLKPEDTAVYYCAAQGYWTYWPYLLRLYDYWGQGTQVTVSS”, the “polyreactivity (PSR sort gate)” value was “low polyreactivity”. For “QVQLVESGAGLVQAGGSLRLSCAPSGSTFMTYAMGWYRQAPGKERELVAAIRWSGGGTYYADSVKGRFTISRDNAKNTVYLQMNSLKPEDTAVYFCAADHFNYTTGRDYWGQGTQVTVSS”, the “polyreactivity (PSR sort gate)” value was “low polyreactivity”. In the case of “QVQLVESGGALVQAGGSLRLSCAPSGRIFDFKAIGWYRQAPGKEREFVAAITWGGGSTYYADSVKGRFSISRDNAKNSVYLPMNSLKPEVTAVYYCAADGWYYYQSWFNFGMDYWGQGTQVTVSS”, the “polyreactivity (PSR sort gate)” value is reported as “low polyreactivity”. In the case of “QVQLVESGGGLVQAGGSLRLSCAASGLIFWLNAMGWYRQAPGKERELVATITAGGDDTNYADSVKGRFTISRDNAKNTVYLQMNSLKPEDTAVYYCAKSRTRSGHYGYDYWGQGTQVTVSS”, the “polyreactivity (PSR sort gate)” value is reported as “low polyreactivity”. For “QVQLVESGGGLVQAGGSLRLSCAASGSIVRYNTMGWYRQAPGKERELVASIRIGGSTYYADSVKGRFTISRDNAKNTVYLQMNSLKAEDTAVYYCAVRPYRSAGGSVTRGAYYYWGQGTQVTVSS”, the “polyreactivity (PSR sort gate)” value was “high polyreactivity”. In the case of “QVQLEESGAGLVQAGGSLRLSCAASGITFYYNDMGWYRQAPGKEREMVASISGDGGSTYYADSVKGRFTISRDNAKNTVYLQMNSLKPEDTAVFYCAASAGYYEVLYDYWGQGTQVTVSS”, the “polyreactivity (PSR sort gate)” value is reported as “low polyreactivity”. In the case of “QVQLVESGGCLVQAGGSLRLSCAASGSIFDRYAMGWYRQAPGKERGLVAAISSSGGSTYYADSVKGRFTISRDNAKNTVYLQMNSLKPEDTAVYYCAAEYYASPYYWSYDYWGQGTQVTVSS”, the “polyreactivity (PSR sort gate)” value is reported as “high polyreactivity”. For “QVQLVESGGGLVQAGGSLRLSCAASGLIFESYVMGWYRQAPGKERELVAAIRSSGGSTYYADSVKGRFTISRDNAKNTVYLQMNSLKPEVTAVYYCSVKGYGEYDYWGQGTQVTVSS”, the “polyreactivity (PSR sort gate)” value was “low polyreactivity”. For “QVQLVESGGGLVQAGGSLRLSCAASGSIFNYYAMGWYRQAPGKEMELVAGITTSGGYTYYADSVKGRFTISSDNAKNTVYLQMNSLKPEDTAVYYCAAYDYISSTYFLDDYWGQGTQVTVSS”, the “polyreactivity (PSR sort gate)” value was “low polyreactivity”. For “QVQRVESGGGLVQAGGSLRLSCAASGSTFPPYGMGWSRQAPGKERELVAAITWRGGRTYYADSVKGRFTISRDNAKNTVYLQMNSLKPEDTAVYYCAASYGPRTGYATYRYASSRYNYWGQGTQVTVSS”, the “polyreactivity (PSR sort gate)” value was “high polyreactivity”.
